# ± gives the standard error. This sample holds only a part of the variants without activity.
# B1: glmS ribozyme (parent)
# chain: AUAAAAGCGCCAGAACUACAGAAAUGUAGUUGACGAGGAGGAGGUUUAUCGAAUUUUCGGCGGAUGCCUCCAAA
# Key:
# Conditions in all cases: with glucosamine-6-phosphate
# [1] = variants of: B1; assay: self-cleavage kobs at 40 uM GlcN6P; higher = faster cleavage; RNA array
# Procedure, shortened: (§1)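 Barcoded ribozyme variants on sequenced MiSeq chips were transcribed in situ by E. coli RNA polymerase and followed at 37 °C through a hybridised Cy3 probe. Glucosamine-6-phosphate at 40 μM to 10 mM in HEPES/KCl/Mg(OAc)2 buffer was flowed in, and tiles were imaged over ~14 h. Signals were normalised to baseline and to non-cleaving reference variants, and per-tile medians were fit to one- or two-exponential decays to give kobs. Weighted Michaelis–Menten fits across concentrations gave kcat and KM.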
# [2] = variants of: B1; assay: self-cleavage kobs at 10000 uM GlcN6P; higher = faster cleavage; RNA array
# Procedure, shortened: as §1
# [3] = variants of: B1; assay: self-cleavage kobs at 2500 uM GlcN6P; higher = faster cleavage; RNA array
# Procedure, shortened: as §1
# [4] = variants of: B1; assay: self-cleavage kobs at 640 uM GlcN6P; higher = faster cleavage; RNA array
# Procedure, shortened: as §1
# [5] = variants of: B1; assay: self-cleavage kobs at 160 uM GlcN6P; higher = faster cleavage; RNA array
# Procedure, shortened: as §1
Variant,self-cleavage kobs at 40 uM GlcN6P [1] [s⁻¹],self-cleavage kobs at 10000 uM GlcN6P [2] [s⁻¹],self-cleavage kobs at 2500 uM GlcN6P [3] [s⁻¹],self-cleavage kobs at 640 uM GlcN6P [4] [s⁻¹],self-cleavage kobs at 160 uM GlcN6P [5] [s⁻¹]
G29U U46G C50U G60U G66U,< 1e-05,–,–,–,–
G32C C34U A64G C68G,< 1e-05,< 1e-05,–,–,–
U31C A39U U54C C71U,5.15e-05 ± 1.1e-05,0.00213 ± 0.00023,0.000671 ± 0.00024,–,–
C16U G43C,< 1e-05,< 1e-05,–,–,–
C16U C50G G62A C67G,6.99e-05 ± 1.9e-05,9.28e-05 ± 1.6e-05,–,0.000337 ± 7.8e-05,–
G32C A36U,< 1e-05,–,< 1e-05,< 1e-05,< 1e-05
G32A C50U,< 1e-05,–,–,< 1e-05,–
U30A A39U G63U,< 1e-05,–,< 1e-05,< 1e-05,–
U31C G40A G59U,< 1e-05,< 1e-05,< 1e-05,< 1e-05,–
G26A A39U G40C,5.34e-05 ± 1.4e-05,–,0.000935 ± 0.00028,0.000262 ± 8.2e-05,–
G26U C50G,4.71e-05 ± 1.9e-05,3.96e-05 ± 1.3e-05,–,–,–
G29U U31A A42U,< 1e-05,–,–,–,–
G21U U46A,6.35e-05 ± 2.2e-05,0.00269 ± 0.00086,0.00271 ± 0.0012,–,–
U31A G59C,< 1e-05,< 1e-05,< 1e-05,< 1e-05,< 1e-05
C16U G29C,0.000447 ± 6.3e-05,0.0179 ± 0.0033,0.00422 ± 0.00072,0.00244 ± 0.00032,0.000622 ± 9.5e-05
U30C U55A U57G,< 1e-05,–,–,–,–
G29A C34U U47G A48G C67G,0.000265 ± 0.0001,7.2e-05 ± 3.2e-05,–,–,–
U30A G35A G51A G60U,< 1e-05,< 1e-05,–,–,–
U31G G66A,0.000146 ± 2.4e-05,0.00839 ± 0.0014,0.00151 ± 0.00042,0.0011 ± 0.00039,–
C16U G32C G38C,< 1e-05,–,–,–,–
C16G G44U,< 1e-05,2.26e-05 ± 1e-05,–,–,< 1e-05
G29A U54C,0.000148 ± 3.6e-05,–,0.00138 ± 0.00056,0.000813 ± 0.00033,0.000257 ± 7e-05
U31G G63A,< 1e-05,< 1e-05,< 1e-05,< 1e-05,< 1e-05
G32C A36C G37C,< 1e-05,–,–,–,–
G29A U56A G63C,< 1e-05,–,–,–,–
G29C C68A,< 1e-05,–,–,–,–

Variant,self-cleavage kobs at 40 uM GlcN6P [1] [s⁻¹],self-cleavage kobs at 10000 uM GlcN6P [2] [s⁻¹],self-cleavage kobs at 2500 uM GlcN6P [3] [s⁻¹],self-cleavage kobs at 640 uM GlcN6P [4] [s⁻¹],self-cleavage kobs at 160 uM GlcN6P [5] [s⁻¹]
C19A U56G C68U,0.000112 ± 3.6e-05,0.000435 ± 9.2e-05,0.00041 ± 7.6e-05,–,–
C19U,0.00125 ± 0.00046,–,0.0229 ± 0.0083,0.00527 ± 0.0011,0.00445 ± 0.0011
C16U U31A,0.000621 ± 7.9e-05,0.0168 ± 0.0026,0.00634 ± 0.0017,0.00468 ± 0.00061,0.000862 ± 0.00014
U31C G40U G44U U46G,< 1e-05,–,–,–,–
G29U C50G G60U C67A,9.35e-05 ± 1.9e-05,0.000133 ± 3e-05,–,–,–
C16U G32U G40A C71G,< 1e-05,0.0002 ± 2.8e-05,–,–,–
U30A U56C A64G,< 1e-05,2.96e-05 ± 1.4e-05,–,–,–
C19A G51A,< 1e-05,< 1e-05,–,–,–
U30G A42G U55G,0.000185 ± 4.5e-05,0.00677 ± 0.0014,0.0026 ± 0.00051,–,–
U30A C50G,3.17e-05 ± 1.5e-05,–,6.93e-05 ± 1.6e-05,0.00128 ± 0.0005,6.28e-05 ± 1.6e-05
C19A A53U,0.000466 ± 8.9e-05,0.0123 ± 0.0028,–,0.00276 ± 0.0012,–
U31G A39G A64G,0.00023 ± 8.9e-05,0.0288 ± 0.012,–,0.00544 ± 0.0014,–
G32A U47C A48G C71U,< 1e-05,–,–,–,–
G32C A52C,< 1e-05,–,< 1e-05,< 1e-05,< 1e-05
G29A G66A,7.16e-05 ± 1.8e-05,0.00305 ± 0.00076,–,–,–
C16U U56G,0.000579 ± 9.9e-05,0.0241 ± 0.0047,0.00709 ± 0.0016,0.00302 ± 0.00067,0.000979 ± 0.0002
C16U U56A,0.000484 ± 9.4e-05,0.0273 ± 0.0079,0.00493 ± 0.0012,0.00448 ± 0.0011,0.000861 ± 0.00013
G29C U54G G60A,< 1e-05,< 1e-05,–,–,–
G29A G35C A39G G41U G43C G62A A64U,< 1e-05,< 1e-05,< 1e-05,< 1e-05,–
G29C U31C G37A C67A,< 1e-05,< 1e-05,< 1e-05,–,–
G29C A39C A48C G60A,< 1e-05,< 1e-05,–,–,–
G29A A48U U54A,< 1e-05,3.57e-05 ± 1.5e-05,–,–,–
C16U G40A,0.000204 ± 2e-05,0.00622 ± 0.00083,0.00398 ± 0.00098,0.000996 ± 0.00017,0.000448 ± 7e-05
U30A G51U U54A,< 1e-05,< 1e-05,–,–,–
G32C A52C G63A,< 1e-05,–,–,–,–
U31G A39U C61U,< 1e-05,–,–,–,–

Variant,self-cleavage kobs at 40 uM GlcN6P [1] [s⁻¹],self-cleavage kobs at 10000 uM GlcN6P [2] [s⁻¹],self-cleavage kobs at 2500 uM GlcN6P [3] [s⁻¹],self-cleavage kobs at 640 uM GlcN6P [4] [s⁻¹],self-cleavage kobs at 160 uM GlcN6P [5] [s⁻¹]
U31A U65C U69C,< 1e-05,–,–,–,–
G29A A33G C34G C67U,< 1e-05,–,–,–,–
G32A A52U C71A,< 1e-05,–,–,–,–
U31G G35C,< 1e-05,–,< 1e-05,< 1e-05,< 1e-05
G32A U57G,< 1e-05,–,–,–,–
C16U C71G,6.56e-05 ± 7.6e-06,0.000726 ± 0.0001,0.000215 ± 3.4e-05,0.000313 ± 4.5e-05,0.00019 ± 2.6e-05
C16U A48U G62U,< 1e-05,< 1e-05,–,< 1e-05,–
G29A C34A,< 1e-05,< 1e-05,< 1e-05,< 1e-05,< 1e-05
G29U A36G A48C C71G,< 1e-05,–,–,–,–
U31G U49G C50G,< 1e-05,–,–,–,–
U30A A42U U55C,< 1e-05,–,–,–,–
G29U A36C G38A G40A,< 1e-05,< 1e-05,< 1e-05,–,–
U31A C50G C58A,5.39e-05 ± 1.9e-05,–,0.000414 ± 0.00012,0.00134 ± 0.00032,–
U31G A53U C58G G60A,< 1e-05,< 1e-05,–,–,–
U30C U69G,3.65e-05 ± 1.2e-05,2.39e-05 ± 1.1e-05,5.46e-05 ± 1.1e-05,0.000119 ± 2.8e-05,7.31e-05 ± 1.5e-05
G29A U49C U69A,< 1e-05,< 1e-05,–,–,–
U30A U31A,0.000419 ± 7.6e-05,0.0264 ± 0.0056,0.0075 ± 0.0013,0.00269 ± 0.00057,0.00152 ± 0.00033
C19A A33G A36G G40A A42G G62U G63A C71A,< 1e-05,–,< 1e-05,–,–
U31G C61G U65C,< 1e-05,–,–,–,–
G32A G41C,< 1e-05,3.31e-05 ± 8.8e-06,–,< 1e-05,–
U30C A52U,< 1e-05,–,–,< 1e-05,–
G32A C50G G51A,< 1e-05,–,–,–,–
U31G U57G,< 1e-05,–,–,–,–
G29U U30G U54A,9.91e-05 ± 2.6e-05,0.00383 ± 0.00068,–,–,–
U31G G59C,< 1e-05,< 1e-05,–,< 1e-05,< 1e-05
U30A A52U U54A C71A,< 1e-05,–,–,–,–

Variant,self-cleavage kobs at 40 uM GlcN6P [1] [s⁻¹],self-cleavage kobs at 10000 uM GlcN6P [2] [s⁻¹],self-cleavage kobs at 2500 uM GlcN6P [3] [s⁻¹],self-cleavage kobs at 640 uM GlcN6P [4] [s⁻¹],self-cleavage kobs at 160 uM GlcN6P [5] [s⁻¹]
U31C G66C C67G,< 1e-05,–,–,–,–
G29U G63U,< 1e-05,< 1e-05,–,< 1e-05,< 1e-05
C16U C34A A39U A52U C70A,< 1e-05,–,–,< 1e-05,–
G29U C34A C61U,< 1e-05,–,–,< 1e-05,–
A18G C70A,4.53e-05 ± 2.1e-05,0.000432 ± 0.00014,–,–,–
G29U G51C,< 1e-05,< 1e-05,–,< 1e-05,–
U30C G43A,< 1e-05,< 1e-05,< 1e-05,–,< 1e-05
U30A U55A C61A,< 1e-05,–,< 1e-05,–,–
C16G G40U C58G,< 1e-05,–,< 1e-05,–,–
C16G U54G G60A C70A,< 1e-05,–,3.79e-05 ± 1.7e-05,0.000647 ± 0.0003,–
C16G G37A C68U,< 1e-05,–,–,–,–
U30G G43A,< 1e-05,–,–,–,< 1e-05
G29U C34A,< 1e-05,< 1e-05,< 1e-05,–,< 1e-05
U30G G59C,< 1e-05,< 1e-05,–,< 1e-05,–
C16U A42U G62A C67A,< 1e-05,< 1e-05,–,–,–
U31G G44A G51U C61U C70G,< 1e-05,–,–,–,–
G29C C61U,< 1e-05,–,–,–,–
U31A U49A C61U C70G,< 1e-05,–,–,–,–
G29C U65G C67U,< 1e-05,0.000105 ± 3e-05,–,–,–
U30G G32A G35C A42C,< 1e-05,–,–,–,–
G29A G35A C68G,0.000947 ± 0.00027,0.000106 ± 3.5e-05,–,–,–
G29C U45C G62A,< 1e-05,–,< 1e-05,–,–
U30A C58G U65C,< 1e-05,–,–,–,–
C16U A39C,0.000107 ± 1.4e-05,0.00545 ± 0.0006,0.00222 ± 0.00082,–,–

# Source: the supplement of paper PMC7125110
